14 sequences from the DeepSol protein solubility set can be followed below.

This data set is described as follows: soluble on expression in E. coli; label from the status in PepcDB or PDB records.
With “MSLRERVKAHPKPADEQLLTRIRDHSISMLLNFLNSMFDGVDDSFFELANHAHTNNEQNRYFEAMREIRIKRKGIENHFQQELARLFNQPPSQHKTSESLSDNVDVDVLSLVQNDALEESVAINSMISKARANFSGSLLQFQTRVSSVYGETNEENAVNPLDPEHICKAFSDACIGLDIEIKEKLIVYKQFDRYVMGNLVECLEEANKIMIQAGVMPNLKYTAKKSRVTPRSTSDVSARPLEAQSDANGYDGAGDVFSQVQELLSALRNTASNPEQQQGDPNTGAGGRQAPPPGNVQFIADADLLSILSRLQHSVRTENLAEGPVVALDLRTAVQGLLSEESQKSGKATALDQIDEDLINLVSMLFEFILDDYNLSAPIQVLISRLQIPILKVAIRDKSFFSKPSHPARKLLNALAKAGIGWSDASEKKRDKLYEQIHRAVQRILEEFNGESELFEEIYQEFSQYLSREERKAKLVEQRTKEAEIGRVKSHKAHQVVEQILSEKIAAQPLPPVAVELLRGGWSRVMFLAYLKEDTEHRLNQCTKVVDELTWCLQPHAEVEARQRWVKVVPQLLKNLKAGLKEVSYNSAKLEHMLGELKKALTETFKQQSITSAQNDAPKPPAPVAAVIEQKLTPAIKTAVERQSEYEDAALAEYLTKIDEMECGAWIEFSLVNGTRFRCKLSTKIEDSDTYIFVNRLGLKVVEKTRGELAHELRKGRIKALEEGLLFDRAMNAVIGNLRKMSGEGHHHHHH”, the “soluble on expression in E. coli” value was “soluble”. Turning to “MDSKLIGKICKSIRYRDYETAIFLAACLLPCKPEYRMLMSIVLYLNGEYTRALFHLHKLNTCTSKYYESLCYKKKKDYKKAIKSLESILEGKVERDPDVDARIQEMFVDPGDEEFFESLLGDLCTLSGYREEGIGHYVRSFGKSFLFSPVENLLLENKVPQKRDKENVRQTGRRGIEEEYVSDSIEFHESLSPSLVKKYMEHVPGIGSYFISNAARRYFNLGMNDKSKACFELVRRKDPMFL”, the “soluble on expression in E. coli” value is on record as “soluble”.

For “WIRTGDGVRLRTVVWPEGAAGTVLIFSGRTEYAEKYGPAAEALRRRGFASATLDWRGQGLSDRSLRDPLVGHVDDFASYQQDVTAFVAALRAQGLPEPFHLLAHSMGGCIGLRALHEGLPVRAACFSAPMWGIRVHAALRIVAAALGALARATGLGHRYVPGTGTRSYVATAAFDTNVLTRDPEMFAWMQEQLVQAPELGLAGPSLDWLRAAFEETARLKRLPAPDLPALCIVGSAEKVVDLEEIQRRMEGWGRGELQIVPGAEHEVMMDRPEVRDAFFDAA”, the “soluble on expression in E. coli” value is “not soluble”. The value for “MSERSVSKQDQEKRWYTVLAPEEFDRAELGETLAEEPDQVYDRTIQAALSDVRDGGDNNIKLTFQIDDVGSDSASTQFVQAELTRDYQRSLVRRGSSKVAVTVTVLTTDDYRVRIQPVAYTTKQADQSQQHAIRRTMIDLVEEAGEERTFEALLNSIIEGRLSSAIYDEANTIYPLRRVEVEKATLEAHPEEVHEEEETAVDFSGELEHHHHHH” was “soluble”; that for “MGSDKIHHHHHHMVLRNSEGTHVHAADADQRPRAICLSTMTTNMQIVTLFRDAPDFAEPGNFEAHLVRLWSVIEALSGKDDRLGQWYLTGSTEEEALLYPAFEASGAPSTALLAVLKTKYQGKRNRAKVVGLWNGHNNPTDGATLKLSIDTGPLPSEVAIDPPKPRDAETGLAPLAAIQGIVSLLVATYAPAVVSVAPMDYFEKKVFDDKPGVGWMLYLPKVITQQQVPEARALIPVPAKGKQTGTIIVSVTDAPFSVDNPEHVAIANRIEIRLVDQDLLPAYVDI” was “not soluble”.

On to “MRPRRSLLSVPAINIRALEKIRELDCDGVILDLEDSVAPDMKGKARENLEKLFSGPPFDGRETIIRINPLSTPDGKADLQLVLSCRPDAVLLPKVEQPSDIHDVADFLAEADAPEHLKIWAMIETPLGVLNAASIADAAHTPNARLAAFVIGLNDLRKETHVPRLPGRTYLVPWMMQVILAARAYGLDVIDSVSNDFRDIEAFEAECEQGRAMGFDGKMLIHPAQIEAANRHFGPDEATLAEARAIIAAFAKPESVELNIINMNGQMIERLHVGQAERLVAMADIIAQRKAKKT”, for which the “soluble on expression in E. coli” value is “not soluble”. The value for “SFDNSLSRELSRKQNENQMFVYSFEASASMLSSDTEYIQKNDIEKIIDSVKRSMGESQIGITIVNQKEKAIYTDSKIGKNIKIKDLKDNNFGYLIFKNNGSYYLETMSKMTIESGTYYISIVSSINEVYNDINEMMKN” was “not soluble”; that for “MAQYKGAASEAGRAMHLMKKREKQREQMEQMKQRIAEENIMKSNIDKKFSAHYDAVEAELKSSTVGLVTLNDMKAKQEALVKEREKQLAKKEQSKELQMKLEKLREKERKKEAKRKISSLSFTLEEEEEGGEEEEEAAMYEEEMEREEITTKKRKLGKNPDVDTSFLPDRDREEEENRLREELRQEWEAKQEKIKSEEIEITFSYWDGSGHRRTVKMRKGNTMQQFLQKALEILRKDFSELRSAGVEQLMYIKEDLIIPHHHSFYDFIVTKARGKSGPLFNFDVHDDVRLLSDATVEKDESHAGKVVLRSWYEKNKHIFPASRWEPYDPEKKWDKYTIR” was “soluble”; that for “DHFFELMGTTTEQAYELVDLHPAYRLFPEGSPALDVDSGVGNVATLFDALHPGAGKKVQRYLRNATDVYHLSLRHFLYTTFSNPRDFLRADILRRLPYLARLLSSSLDTWVRNRFPHPILRQILSYPAVFLSTQPTQAPALYSLMSHTDLVEGVHYPRGGFAAIMSAIEKIDREAGVEFYYEHEVTDITIESGRACGITAAGPHGTSTFNADVVVSAADLHHTETRLLPPHLRSYPENYWSKRNPGLGTVLIMLGVRGHLPELAHHNLLFSKDWDPDFAAVYSGPHPSRPLGASQSIYISKTSATDSDAAPEGHENLFILVPVPANDALGHGNTYHHTASPRVEEITRATIAQIATWTGISDLDERIVVTKTIGPADFSERYHAWSSGAIGPAHTLMQSAFFRGKNMASKVKGLYYAGGTTVPGVGVPMCLISAENVITRIKAE” was “not soluble”. In the case of “MMRITGKHCLRVAILSIQRSGMIHPRNTNGSKAKNVMVADGCVIEGTVENSILSRGVKIGKNAKVKNCILLQDTVIEDGANLEYVITDKNVRVSRNRSLTGNDSFQVYVAKGQTV”, the “soluble on expression in E. coli” value is recorded as “not soluble”. Take “MKAKDVKLLARYLEMLKDPNIIKTQDVFTVIRYISYNSYGKTMAWNWIQLNWDYLVSRFTINDRYLGRIVTIAEPFNTELQLWQMQSFFAKYPNAGAGAKPREQVLETVKNNIEWLNVNRQSIREWFASLP”: the “soluble on expression in E. coli” value is “not soluble”. With “MGESGLFDTPDQKVGLTGRPLREFPEPEPLHKHGPAKIISMCNQKGGVGKTTSTINLGACLAEAGRKVLLVDLDPQGALSAGLNIPHEELEITVYNLLVDRHTSIHQAIHHTSVDGLDLVPANIDLSAAEIQLVNEVGREQTLARALRPVMRDYDFIILDCQPSLGLLTVNALTCSHGVIIPMECEYFSLRGLALLTDTVEKVRDRLNFDLEIVGILVTMFDRRTTHAREVMSRVVEVFEDRVFDTVITRTVRFPETSVAGEPITTWAPSSQGAQQYRQLAREVIERTA”, the “soluble on expression in E. coli” value is reported as “not soluble”.

Consider “MAHHHHHHMKAFFIGKREYRRVLSLQETIFNAKIARQVSVRRGASKLPLLPDVVILVEHSTPVYTIGRRDTTHGLPPHCSIDVVKTRRGGGITYHGPGQLTMYPIANIQLLWKDCTAEKPRSPIEWFSWALEEAMIQTAAMYHIPTHRFKTGVWADQYKDIPAQKLGAVGLQLGSWVSMHGAGLNVASDLHFFDDIIMCELPDRRATSLSNEMQHRGVAESPPLVQATAPVLLQKFIESLHQQPSCAAPQLVDLSADADWHERVIDTAGISTP”, for which the “soluble on expression in E. coli” value is listed as “not soluble”.

As for “MSLKPLAYRMRPTKIEDIIGQQHLVAEDKIIGRMVQAKHLSSMILYGPPGIGKTSIATAIAGSTSIAFRKLNAVINNKKDMEIVAQEAKMSGQVILILDEVHRLDKGKQDFLLPYLENGMIILIGATTANPYHAINPAIRSRTQIFELEPLTPELIKQALERALHDEHRGLGTYSVSIDDQAMEHFAHGCGGDVRSALNALELAVLSTKESADGEIHITLETAEECLQKKSFSHDKDGDAHYDVLSAFQKSIRGSDANAALHYLARLIEAGDLESIARRLLVIAYEDIGLASPQAGPRVLNAIQTAERVGFPEARIPLANAVIELCLSPKSNSAILAIDEALADIRAGKIGDVPKHLKDAHYKGAQELGRGIDYKYPHNYDNGWVEQQYLPDPLKNKQYYKPKQTGKFESALKQVYDKLMKGIITITTDPNSSSVDKLAAALEHHHHHH”, the “soluble on expression in E. coli” value is “soluble”.
